± gives the half width of the 95% confidence interval.
Assays:
[1] = folding stability dG unfold (combined trypsin and chymotrypsin); higher = more stable
Procedure, shortened: (§1)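 Mini-proteins designed to be under 80 residues and free of cysteine were carried in a PA-tagged cDNA display construct and digested with trypsin and with chymotrypsin. Each protease was applied at 11 threefold-diluted concentrations, alongside a no-protease condition, before sequencing. K50 came from Bayesian fitting of the sequencing counts, and unfolding free energy was obtained by comparing it with a sequence-predicted unfolded-state K50 and a shared folded-state K50, for each protease separately or for both together. Designs were retained only if their AlphaFold2 dimer inter-PAE exceeded 15.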

[2] = folding stability dG unfold from trypsin proteolysis; higher = more stable
Procedure, shortened: as §1

[3] = folding stability dG unfold from chymotrypsin proteolysis; higher = more stable
Procedure, shortened: as §1

Sequence	folding stability dG unfold [1] [kcal/mol]	folding stability dG unfold [2] [kcal/mol]	folding stability dG unfold [3] [kcal/mol]
SAGGSAGGSDKVVEFTFKIPSKDITAEDIAKAVKEAFPGVKKIEVTLYPGEGTAKVKVYLEPSSAGGSAGGS [r20_31_TrMRF]	4.29 ± 0.18	3.52 ± 0.16	4.44 ± 0.088
SAGGSAGGSDMVLVTAPVDIPPNVKVEIKLKDGYETVSYDPESGRLVILVPANKLDEVLEAIKSAGGSAGGS [r12_476_TrMRF]	1.65 ± 0.075	0.996 ± 0.026	2.01 ± 0.087
SAGGSAGGSDNVKIEWEYNPENGVYTHEVYYDDGRPVTIIINPAEGPIWVFDPPDGKPIAPIPSAGGSAGGS [r12_657_TrROS]	1.07 ± 0.073	1.36 ± 0.05	0.833 ± 0.023
SAGGSAGGSDPDLDIPPAPLEEIYIPGTGRLLVLYEPTGLVAAYPPSGSFEIGVYDPETGKISSAGGSAGGS [r12_420_TrMRF]	-0.297 ± 0.12	-0.0238 ± 0.073	-0.775 ± 0.3
SAGGSAGGSDPSEVRLTFTVTVELTFDAVLFYEPGTGRLVAVAPYLRVEVEVEVTLTFPADALSAGGSAGGS [r12_600_TrMRF]	4.63 ± 0.21	3.17 ± 0.096	5.04 ± 0.11
SAGGSAGGSDRYLAVVFVRRADDPTPEVRTFTGIRTLADVERAVADALPADVAEVRIVVFPVRSAGGSAGGS [r20_29_TrMRF]	1.67 ± 0.12	1.59 ± 0.055	1.82 ± 0.12
SAGGSAGGSDTLEYEVPLEDGSTIRITLFPDGTARVELEDGTPVAEIEVPPDTSIEELIARIRSAGGSAGGS [r12_990_TrMRF]	2.45 ± 0.076	2.74 ± 0.081	2.06 ± 0.063
SAGGSAGGSDTPTINIPPGMGNPEQAIEQLKEIREHFPPGKKISISAPGGWKPELKEAGLITVSAGGSAGGS [r12_992_TrROS]	0.513 ± 0.11	-0.37 ± 0.11	1.23 ± 0.08
SAGGSAGGSDVEVEEVDVEIEVNGKKFKVKIYRNKKDKNRYYIFFEDTGKVFEIDKNGNIRPLSAGGSAGGS [r12_580_TrROS_Hall]	3.21 ± 0.064	2.74 ± 0.1	3.49 ± 0.044
SAGGSAGGSDVEVTVTLEYDEETGVLYVTAEVRDKETGRTVRVVVKFDLETNEWEVVAVEVLPSAGGSAGGS [r20_163_TrROS_Hall]	3.91 ± 0.11	2.92 ± 0.16	4.25 ± 0.16
SAGGSAGGSDVSEEELRAIAEEIAAELGLSDITVEVEKLPTAVVRITITNPATGETIEIEVPESAGGSAGGS [r12_1000_JUSTAS]	1.79 ± 0.047	1.75 ± 0.038	1.77 ± 0.061
SAGGSAGGSDVTVTEYDVTLTVDVTFTAPDANGNPVTTTTPVTIPLKVTVFDFGTARLVVVEGSAGGSAGGS [r20_58_TrMRF]	3.57 ± 0.058	2.86 ± 0.087	3.82 ± 0.048
SAGGSAGGSDYEYENEKDPDGQTKMKMRPKPPPVTVEVLIKLPNGLYFPIEITIYGNHITISISAGGSAGGS [r12_784_TrROS]	2.32 ± 0.23	2.17 ± 0.12	2.52 ± 0.075
SAGGSAGGSDYKIEIEVEPMDPEDGYYQVELEIYDPNNGEPKEKIPVHMDSPEDAKDAIKELISAGGSAGGS [r12_26_TrROS]	0.456 ± 0.084	0.499 ± 0.09	0.362 ± 0.024
SAGGSAGGSEEELKKLLDNIKEVKVVENENGEKYVVFTVTDKNGKKITIVAKSPEARELAKKLSAGGSAGGS [r12_466_TrROS_Hall]	1.96 ± 0.11	1.45 ± 0.066	2.35 ± 0.046
SAGGSAGGSEEKTVLARIKITFPDGEKREIEVEMTLDELKKLLEELGLSEEEVKIEVELVPLPSAGGSAGGS [r20_154_TrROS_Hall]	3.8 ± 0.087	3.99 ± 0.11	3.56 ± 0.071
SAGGSAGGSEEREYVEVEFEFLARLEDGSLLVTRVRLLLPAEPAELRPEVRSEVLPLAPGEELSAGGSAGGS [r12_811_TrMRF]	2.22 ± 0.16	1.48 ± 0.071	2.7 ± 0.063
SAGGSAGGSEFYVIKIKNPETKKEIELVFEGSEEEIKAAIEELAKKPNLKIEIKKIKVSKEELSAGGSAGGS [r12_92_TrROS_Hall]	1.89 ± 0.18	1.43 ± 0.085	1.78 ± 0.074
SAGGSAGGSEITILIKDENGYLIKVKVELKLKKNKDGKKTLELKIEITEIYKVPSKEEAKKLLSAGGSAGGS [r12_915_TrROS_Hall]	1.78 ± 0.22	0.755 ± 0.1	2.08 ± 0.11
SAGGSAGGSEKEIVLVVKSKEDALKAAEELAKALGLEVEVEVIEVKTLENGEKYVVVKITIKDSAGGSAGGS [r12_924_TrROS_Hall]	3.74 ± 0.2	3.75 ± 0.16	3.7 ± 0.091
SAGGSAGGSEKPVLIVKVKVKNPKTKKWEEKTIEVPEGVKTPEEVAKALEKEFGDVVKVEILPSAGGSAGGS [r12_942_TrROS_Hall]	1.63 ± 0.19	1.25 ± 0.064	1.86 ± 0.11

From the supplement of paper PMC12764529
